{
  "source": "paper PMC12413468",
  "about": "(Communications Biology, 2025)",
  "key": {"[1]": {"molecular_target": "His6-tagged SPAK CCT domain (mouse SPAK 459–556) (mouse, UniProt Q9Z1W9 459-556)", "assay": "fluorescence polarisation"}, "[2]": {"molecular_target": "T1, His6-tagged OSR1 CCT domain (human OSR1 433–527) (human, UniProt O95747 433-527)", "T1 sequence (O95747 433-527)": "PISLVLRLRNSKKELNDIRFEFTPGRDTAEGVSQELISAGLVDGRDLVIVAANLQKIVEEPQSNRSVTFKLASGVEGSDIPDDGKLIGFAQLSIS", "assay": "fluorescence polarisation"}, "[3]": {"molecular_target": "T1, His6-tagged OSR1 CCT domain (human OSR1 …)", "assay": "peptide or protein array"}},
  "note": "Where no end group is shown, it is not given here. [ ]: non-standard residue; d: D form. pS = N[C@@H](COP(=O)(O)O)C(=O)O",
  "data": [
    {"binder": "SAGHHFIVSPVPE", "note": "[WNK1 peptide 1253–1265 with the arginines replaced by histidine-histidine]", "values": [
      {"measurement": "fold decrease in affinity against wild type", "setting": "[1]", "result": "~7", "unit": "fold"},
      {"measurement": "fold decrease in affinity against wild type", "setting": "[2]", "result": "~7", "unit": "fold"}
    ]},
    {"binder": "SAGHAFIVSPVPE", "note": "[WNK1 peptide 1253–1265 with the arginines replaced by histidine-alanine]", "values": [
      {"measurement": "fold decrease in affinity against wild type", "setting": "[1]", "result": 11, "unit": "fold"},
      {"measurement": "fold decrease in affinity against wild type", "setting": "[2]", "result": 11, "unit": "fold"}
    ]},
    {"binder": "SAGKKFIVSPVPE", "note": "[WNK1 peptide 1253–1265 with the arginines replaced by lysine-lysine]", "values": [
      {"measurement": "Ki", "setting": "[1]", "result": 4.2, "unit": "µM"},
      {"measurement": "Ki", "setting": "[2]", "result": 16.3, "unit": "µM"}
    ]},
    {"binder": "Ac-QLVGRFQVTSSKE (also: covalently linked to the membrane)", "note": "[Wild-type WNK4 1012–1024 base peptide on the peptide array]", "values": [
      {"measurement": "binding result", "setting": "[3]", "result": "binds"}
    ]},
    {"binder": "QLVGRFQVTSSKE", "note": "[Wild-type human WNK4 peptide 1012–1024 (QLVGRFQVTSSKE)]", "values": [
      {"measurement": "Ki", "setting": "[1]", "result": 7.2, "unit": "µM"},
      {"measurement": "Ki", "setting": "[2]", "result": 12.9, "unit": "µM"}
    ]},
    {"binder": "QLVSRFQVTSSKE", "note": "[WNK4 peptide 1012–1024 with the −2 glycine changed to serine]", "values": [
      {"measurement": "binding result", "setting": "[1]", "result": "binds"},
      {"measurement": "binding result", "setting": "[2]", "result": "binds"}
    ]},
    {"binder": "QLVARFQVTSSKE", "note": "[WNK4 peptide 1012–1024 with the −2 glycine changed to alanine (QLVARFQVTSSKE)]", "values": [
      {"measurement": "binding result", "setting": "[1]", "result": "binds"},
      {"measurement": "binding result", "setting": "[2]", "result": "binds"}
    ]},
    {"binder": "SAGRRFIV[pS]PVPE", "note": "[WNK1 peptide 1253–1265 with phosphoserine at the +3 position]", "values": [
      {"measurement": "fold decrease in affinity against the unphosphorylated peptide", "setting": "[1]", "result": "~2.5", "unit": "fold"},
      {"measurement": "fold decrease in affinity against the unphosphorylated peptide", "setting": "[2]", "result": "~2.5", "unit": "fold"}
    ]},
    {"binder": "H-SAGRRFIVSPVPE-OH", "note": "[Wild-type human WNK1 peptide 1253–1265 (NH3+-SAGRRFIVSPVPE-COO-)]", "values": [
      {"measurement": "Ki", "setting": "[1]", "result": 2.5, "unit": "µM"},
      {"measurement": "Ki", "setting": "[2]", "result": 5.1, "unit": "µM"}
    ]}
  ]
}
